Assay results from the supplement of paper PMC5998384.

Columns and labels:
HeLa Kyoto [1] = test: thermal stability score vs G1/S (z-score of summed log2 fold changes over temperatures); higher = more thermally stable than in G1/S
HeLa Kyoto [2] = test: melting temperature (median over replicates), in situ; higher = more thermally stable
HeLa Kyoto [3] = test: solubility in G1/S (NP-40 vs SDS abundance) (log2 ratio); higher = more soluble; conditions: cell cycle stage: G1/S
HeLa Kyoto [4] = test: solubility change mitosis vs G1/S (difference of NP-40 vs SDS log2 ratios) (log2 ratio difference); higher = more soluble in mitosis
[5] = cell cycle stage: early G1 (4.5 h after nocodazole release)
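For melting temperature (median over replicates), in situ in this document: HeLa Kyoto cells synchronized by double thymidine or nocodazole block, proteins quantified by TMT10plex mass spectrometry, three independent biological replicates.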
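For solubility change mitosis vs G1/S (difference of NP-40 vs SDS log2 ratios) in this document: synchronized HeLa Kyoto cells (double thymidine block for G1/S, nocodazole release for mitosis), protein amounts in NP-40 versus SDS lysates quantified by mass spectrometry, three biological replicates.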
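For solubility in G1/S (NP-40 vs SDS abundance) in this document: HeLa Kyoto cells arrested at G1/S by double thymidine block, proteins quantified by TMT10plex mass spectrometry in mild NP-40 versus SDS extracts, three biological replicates.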
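For thermal stability score vs G1/S (z-score of summed log2 fold changes over temperatures) in this document: synchronized HeLa Kyoto cells, proteins quantified by TMT10plex mass spectrometry, three biological replicates, mitosis taken 0.5 h after nocodazole release, G1/S directly after double thymidine block.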

PPP2R5E, sequence (chain, as listed by the source): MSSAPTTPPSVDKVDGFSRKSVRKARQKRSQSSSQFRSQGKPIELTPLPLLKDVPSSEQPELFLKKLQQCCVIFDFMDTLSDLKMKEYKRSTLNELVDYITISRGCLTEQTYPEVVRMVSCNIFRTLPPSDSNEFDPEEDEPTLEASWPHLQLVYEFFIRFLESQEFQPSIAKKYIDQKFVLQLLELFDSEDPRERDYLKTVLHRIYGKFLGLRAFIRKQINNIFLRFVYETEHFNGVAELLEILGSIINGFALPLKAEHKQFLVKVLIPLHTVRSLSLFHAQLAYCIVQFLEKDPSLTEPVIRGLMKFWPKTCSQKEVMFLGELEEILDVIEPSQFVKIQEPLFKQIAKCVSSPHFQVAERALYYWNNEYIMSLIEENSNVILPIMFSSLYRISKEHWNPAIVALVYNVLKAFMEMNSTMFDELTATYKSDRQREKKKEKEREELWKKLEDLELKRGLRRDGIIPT
RPIA, sequence (chain, as listed by the source): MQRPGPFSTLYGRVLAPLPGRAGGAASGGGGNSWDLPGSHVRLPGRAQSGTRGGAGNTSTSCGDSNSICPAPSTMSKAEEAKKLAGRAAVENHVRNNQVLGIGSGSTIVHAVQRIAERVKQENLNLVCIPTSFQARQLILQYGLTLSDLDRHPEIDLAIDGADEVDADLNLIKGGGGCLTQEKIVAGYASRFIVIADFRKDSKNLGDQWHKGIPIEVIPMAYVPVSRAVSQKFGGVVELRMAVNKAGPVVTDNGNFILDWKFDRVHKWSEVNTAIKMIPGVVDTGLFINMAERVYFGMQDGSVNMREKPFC
OCRL, sequence (chain, as listed by the source): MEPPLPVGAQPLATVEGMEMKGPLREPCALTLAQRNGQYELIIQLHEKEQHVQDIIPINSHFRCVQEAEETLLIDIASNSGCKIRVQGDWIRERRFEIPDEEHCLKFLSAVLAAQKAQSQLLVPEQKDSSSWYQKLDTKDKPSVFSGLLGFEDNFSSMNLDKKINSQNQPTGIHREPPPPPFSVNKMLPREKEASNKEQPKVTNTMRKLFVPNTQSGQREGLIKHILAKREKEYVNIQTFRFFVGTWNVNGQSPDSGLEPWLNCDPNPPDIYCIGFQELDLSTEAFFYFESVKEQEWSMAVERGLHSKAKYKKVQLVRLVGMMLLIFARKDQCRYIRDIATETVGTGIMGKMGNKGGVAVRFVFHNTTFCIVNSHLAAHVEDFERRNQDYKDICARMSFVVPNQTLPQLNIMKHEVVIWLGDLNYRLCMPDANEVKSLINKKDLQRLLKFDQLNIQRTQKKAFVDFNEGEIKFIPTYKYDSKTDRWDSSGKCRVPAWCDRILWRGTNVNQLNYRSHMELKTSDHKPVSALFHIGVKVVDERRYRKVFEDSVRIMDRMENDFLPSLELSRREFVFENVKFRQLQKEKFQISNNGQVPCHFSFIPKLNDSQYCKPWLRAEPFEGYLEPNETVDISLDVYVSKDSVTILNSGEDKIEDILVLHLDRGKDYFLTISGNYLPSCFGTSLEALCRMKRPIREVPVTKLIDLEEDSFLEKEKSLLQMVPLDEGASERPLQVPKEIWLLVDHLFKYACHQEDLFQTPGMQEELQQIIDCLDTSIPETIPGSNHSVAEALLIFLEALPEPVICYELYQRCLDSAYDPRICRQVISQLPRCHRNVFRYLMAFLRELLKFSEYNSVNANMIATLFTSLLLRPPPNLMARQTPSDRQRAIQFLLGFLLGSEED
PRRC2B, sequence (chain, as listed by the source): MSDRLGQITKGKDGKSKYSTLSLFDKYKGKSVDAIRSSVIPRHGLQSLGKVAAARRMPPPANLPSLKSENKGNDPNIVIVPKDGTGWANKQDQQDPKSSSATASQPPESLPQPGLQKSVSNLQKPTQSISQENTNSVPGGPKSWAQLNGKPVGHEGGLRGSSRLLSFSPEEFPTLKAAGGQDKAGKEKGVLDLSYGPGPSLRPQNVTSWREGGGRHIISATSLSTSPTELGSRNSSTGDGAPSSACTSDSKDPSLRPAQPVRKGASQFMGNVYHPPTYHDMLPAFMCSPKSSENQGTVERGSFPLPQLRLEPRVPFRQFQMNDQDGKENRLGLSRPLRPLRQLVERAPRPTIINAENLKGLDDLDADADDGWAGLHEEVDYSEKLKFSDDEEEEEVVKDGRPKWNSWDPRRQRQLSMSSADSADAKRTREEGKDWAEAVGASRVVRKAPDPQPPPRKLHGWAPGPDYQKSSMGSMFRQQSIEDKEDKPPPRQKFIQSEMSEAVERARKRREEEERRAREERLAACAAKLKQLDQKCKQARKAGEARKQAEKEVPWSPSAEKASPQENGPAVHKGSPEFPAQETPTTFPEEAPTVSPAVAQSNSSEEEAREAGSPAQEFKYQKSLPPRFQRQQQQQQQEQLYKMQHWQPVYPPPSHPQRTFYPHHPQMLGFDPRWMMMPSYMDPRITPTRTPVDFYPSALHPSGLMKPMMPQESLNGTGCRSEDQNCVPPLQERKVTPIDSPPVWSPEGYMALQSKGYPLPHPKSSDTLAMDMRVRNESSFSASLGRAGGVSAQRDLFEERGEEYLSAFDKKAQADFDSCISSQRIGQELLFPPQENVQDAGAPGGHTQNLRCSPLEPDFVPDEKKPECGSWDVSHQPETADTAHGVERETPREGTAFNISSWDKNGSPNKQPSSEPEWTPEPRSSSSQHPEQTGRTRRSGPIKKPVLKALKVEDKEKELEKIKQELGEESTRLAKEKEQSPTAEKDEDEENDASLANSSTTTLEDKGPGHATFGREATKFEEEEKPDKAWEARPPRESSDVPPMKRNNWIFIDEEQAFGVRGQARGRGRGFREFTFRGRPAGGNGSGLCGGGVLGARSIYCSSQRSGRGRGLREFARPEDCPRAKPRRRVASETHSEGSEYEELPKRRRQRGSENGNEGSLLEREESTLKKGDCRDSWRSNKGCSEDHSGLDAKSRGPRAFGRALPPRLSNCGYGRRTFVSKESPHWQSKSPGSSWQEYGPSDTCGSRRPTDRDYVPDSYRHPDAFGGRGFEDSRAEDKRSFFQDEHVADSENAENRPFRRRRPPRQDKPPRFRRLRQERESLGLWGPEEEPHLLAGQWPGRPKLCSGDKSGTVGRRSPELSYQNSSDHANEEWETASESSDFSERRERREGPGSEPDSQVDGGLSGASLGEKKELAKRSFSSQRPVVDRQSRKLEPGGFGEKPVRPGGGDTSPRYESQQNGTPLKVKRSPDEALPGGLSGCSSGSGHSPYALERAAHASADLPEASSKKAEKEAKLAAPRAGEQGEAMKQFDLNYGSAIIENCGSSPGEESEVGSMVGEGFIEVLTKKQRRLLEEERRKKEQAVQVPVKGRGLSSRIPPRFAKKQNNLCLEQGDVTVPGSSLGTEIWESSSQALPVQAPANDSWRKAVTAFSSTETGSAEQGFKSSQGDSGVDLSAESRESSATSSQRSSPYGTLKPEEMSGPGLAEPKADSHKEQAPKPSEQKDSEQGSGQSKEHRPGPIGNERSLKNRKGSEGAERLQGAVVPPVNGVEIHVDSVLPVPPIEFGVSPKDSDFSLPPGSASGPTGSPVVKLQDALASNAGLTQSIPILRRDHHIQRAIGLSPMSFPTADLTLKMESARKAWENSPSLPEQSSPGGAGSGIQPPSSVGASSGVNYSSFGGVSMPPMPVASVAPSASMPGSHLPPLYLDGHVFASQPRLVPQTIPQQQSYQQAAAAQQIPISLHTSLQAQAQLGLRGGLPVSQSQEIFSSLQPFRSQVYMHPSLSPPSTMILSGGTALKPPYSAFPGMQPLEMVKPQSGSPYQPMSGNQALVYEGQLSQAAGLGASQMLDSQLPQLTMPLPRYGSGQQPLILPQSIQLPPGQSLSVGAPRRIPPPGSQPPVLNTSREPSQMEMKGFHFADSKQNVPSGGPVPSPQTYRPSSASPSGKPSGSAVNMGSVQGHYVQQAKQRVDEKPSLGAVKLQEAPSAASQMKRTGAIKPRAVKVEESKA
RHOB, sequence (chain, as listed by the source): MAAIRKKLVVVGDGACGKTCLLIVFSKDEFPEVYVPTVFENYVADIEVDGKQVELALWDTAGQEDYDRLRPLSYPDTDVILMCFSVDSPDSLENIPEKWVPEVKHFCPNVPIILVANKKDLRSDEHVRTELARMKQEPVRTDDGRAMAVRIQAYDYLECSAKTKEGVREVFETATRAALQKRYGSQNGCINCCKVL
PPP2R5D, sequence (chain, as listed by the source): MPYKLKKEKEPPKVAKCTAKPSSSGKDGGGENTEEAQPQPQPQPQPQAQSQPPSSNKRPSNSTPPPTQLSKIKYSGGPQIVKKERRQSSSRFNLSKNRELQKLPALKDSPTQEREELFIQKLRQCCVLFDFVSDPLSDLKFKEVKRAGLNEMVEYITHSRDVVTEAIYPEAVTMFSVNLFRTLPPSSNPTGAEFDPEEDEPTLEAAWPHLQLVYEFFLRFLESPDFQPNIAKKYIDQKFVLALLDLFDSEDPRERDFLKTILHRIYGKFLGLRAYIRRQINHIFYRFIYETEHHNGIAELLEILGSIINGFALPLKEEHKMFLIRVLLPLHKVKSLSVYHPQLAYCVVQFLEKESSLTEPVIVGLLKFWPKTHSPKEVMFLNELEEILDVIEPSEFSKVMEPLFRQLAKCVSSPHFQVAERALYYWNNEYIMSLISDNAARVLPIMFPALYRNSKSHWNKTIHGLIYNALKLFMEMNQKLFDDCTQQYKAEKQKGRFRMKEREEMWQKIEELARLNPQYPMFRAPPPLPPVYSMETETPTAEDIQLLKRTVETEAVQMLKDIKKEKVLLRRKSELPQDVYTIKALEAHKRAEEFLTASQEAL
PSME2, sequence (chain, as listed by the source): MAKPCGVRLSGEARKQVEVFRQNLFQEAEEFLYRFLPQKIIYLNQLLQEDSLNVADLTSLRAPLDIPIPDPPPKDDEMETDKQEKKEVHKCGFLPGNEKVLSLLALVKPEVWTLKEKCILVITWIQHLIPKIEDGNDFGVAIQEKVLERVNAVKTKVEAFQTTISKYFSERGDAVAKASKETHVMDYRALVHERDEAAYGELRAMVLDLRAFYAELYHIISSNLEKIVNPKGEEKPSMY

Substance	thermal stability score (HeLa Kyoto [1]; [5])	thermal stability score (HeLa Kyoto [1]; cell cycle stage: mitosis)	melting temperature (HeLa Kyoto [2]; cell cycle stage: G1/S)	melting temperature (HeLa Kyoto [2]; cell cycle stage: mitosis)	solubility in G1/S (log2) (HeLa Kyoto [3])	solubility change mitosis (log2) (HeLa Kyoto [4])
MYHSLSETRHPLQPEEQEVGIDPLSSYSNKSGGDSNKNGRRTSSTLDSEGTFNSYRKEWEELFVNNNYLATIRQKGINGQLRSSRFRSICWKLFLCVLPQDKSQWISRIEELRAWYSNIKEIHITNPRKVVGQQDLMINNPLSQDEGSLWNKFFQDKELRSMIEQDVKRTFPEMQFFQQENVRKILTDVLFCYARENEQLLYKQGMHELLAPIVFVLHCDHQAFLHASESAQPSEEMKTVLNPEYLEHDAYAVFSQLMETAEPWFSTFEHDGQKGKETLMTPIPFARPQDLGPTIAIVTKVNQIQDHLLKKHDIELYMHLNRLEIAPQIYGLRWVRLLFGREFPLQDLLVVWDALFADGLSLGLVDYIFVAMLLYIRDALISSNYQTCLGLLMHYPFIGDVHSLILKALFLRDPKRNPRPVTYQFHPNLDYYKARGADLMNKSRTNAKGAPLNINKVSNSLINFGRKLISPAMAPGSAGGPVPGGNSSSSSSVVIPTRTSAEAPSHHLQQQQQQQRLMKSESMPVQLNKGLSSKNISSSPSVESLPGGREFTGSPPSSATKKDSFFSNISRSRSHSKTMGRKESEEELEAQISFLQGQLNDLDAMCKYCAKVMDTHLVNIQDVILQENLEKEDQILVSLAGLKQIKDILKGSLRFNQSQLEAEENEQITIADNHYCSSGQGQGRGQGQSVQMSGAIKQASSETPGCTDRGNSDDFILISKDDDGSSARGSFSGQAQPLRTLRSTSGKSQAPVCSPLVFSDPLMGPASASSSNPSSSPDDDSSKDSGFTIVSPLDI [TBC1D5]	0.296	0.901	50.7 °C	50.1 °C	0.207	-0.272
MYIKQVIIQGFRSYRDQTIVDPFSSKHNVIVGRNGSGKSNFFYAIQFVLSDEFSHLRPEQRLALLHEGTGPRVISAFVEIIFDNSDNRLPIDKEEVSLRRVIGAKKDQYFLDKKMVTKNDVMNLLESAGFSRSNPYYIVKQGKINQMATAPDSQRLKLLREVAGTRVYDERKEESISLMKETEGKREKINELLKYIEERLHTLEEEKEELAQYQKWDKMRRALEYTIYNQELNETRAKLDELSAKRETSGEKSRQLRDAQQDARDKMEDIERQVRELKTKISAMKEEKEQLSAERQEQIKQRTKLELKAKDLQDELAGNSEQRKRLLKERQKLLEKIEEKQKELAETEPKFNSVKEKEERGIARLAQATQERTDLYAKQGRGSQFTSKEERDKWIKKELKSLDQAINDKKRQIAAIHKDLEDTEANKEKNLEQYNKLDQDLNEVKARVEELDRKYYEVKNKKDELQSERNYLWREENAEQQALAAKREDLEKKQQLLRAATGKAILNGIDSINKVLDHFRRKGINQHVQNGYHGIVMNNFECEPAFYTCVEVTAGNRLFYHIVDSDEVSTKILMEFNKMNLPGEVTFLPLNKLDVRDTAYPETNDAIPMISKLRYNPRFDKAFKHVFGKTLICRSMEVSTQLARAFTMDCITLEGDQVSHRGALTGGYYDTRKSRLELQKDVRKAEEELGELEAKLNENLRRNIERINNEIDQLMNQMQQIETQQRKFKASRDSILSEMKMLKEKRQQSEKTFMPKQRSLQSLEASLHAMESTRESLKAELGTDLLSQLSLEDQKRVDALNDEIRQLQQENRQLLNERIKLEGIITRVETYLNENLRKRLDQVEQELNELRETEGGTVLTATTSELEAINKRVKDTMARSEDLDNSIDKTEAGIKELQKSMERWKNMEKEHMDAINHDTKELEKMTNRQGMLLKKKEECMKKIRELGSLPQEAFEKYQTLSLKQLFRKLEQCNTELKKYSHVNKKALDQFVNFSEQKEKLIKRQEELDRGYKSIMELMNVLELRKYEAIQLTFKQVSKNFSEVFQKLVPGGKATLVMKKGDVEGSQSQDEGEGSGESERGSGSQSSVPSVDQFTGVGIRVSFTGKQGEMREMQQLSGGQKSLVALALIFAIQKCDPAPFYLFDEIDQALDAQHRKAVSDMIMELAVHAQFITTTFRPELLESADKFYGVKFRNKVSHIDVITAEMAKDFVEDDTTHG [SMC3]	-0.978	-1.78	52.6 °C	51.5 °C	-0.182	-0.0245
MYO9B	-0.189	-0.197	50.4 °C	49.6 °C	-0.141	0.00466
MYOF	-1.57	-1.2	53.8 °C	53.4 °C	-0.326	-0.129
MYTFVVRDENSSVYAEVSRLLLATGHWKRLRRDNPRFNLMLGERNRLPFGRLGHEPGLVQLVNYYRGADKLCRKASLVKLIKTSPELAESCTWFPESYVIYPTNLKTPVAPAQNGIQPPISNSRTDEREFFLASYNRKKEDGEGNVWIAKSSAGAKGEGILISSEASELLDFIDNQGQVHVIQKYLEHPLLLEPGHRKFDIRSWVLVDHQYNIYLYREGVLRTASEPYHVDNFQDKTCHLTNHCIQKEYSKNYGKYEEGNEMFFKEFNQYLTSALNITLESSILLQIKHIIRNCLLSVEPAISTKHLPYQSFQLFGFDFMVDEELKVWLIEVNGAPACAQKLYAELCQGIVDIAISSVFPPPDVEQPQTQPAAFIKL [TTL]	0.614	-0.119	53.9 °C	53.4 °C	0.146	-0.197
NCAPD3	0.362	0.667	48.4 °C	49.8 °C	-0.316	-0.0894
NFAT5	0.898	1.21	50 °C	50.6 °C	-0.0162	-0.176
NUP98	-1.52	-1.57	48.4 °C	48.6 °C	-0.162	0.26
NUP188	-2.04	-2.93	51 °C	49 °C	-0.299	-0.108
OCRL	-0.419	-0.472	51.4 °C	51.8 °C	-0.137	-0.122
OLA1	1.23	0.644	51.3 °C	51.2 °C	0.346	-0.109
PIEZO1	-1.8	-2.23	57.1 °C	56.5 °C	-0.227	-0.0922
PIK3C2B	-0.0552	-0.413	50.1 °C	49.7 °C	-0.164	-0.142
PKN1	0.284	0.47	49.9 °C	50.6 °C	0.0374	-0.112
PLXNA1	-1.69	-1.65	53.8 °C	52.5 °C	-0.0498	0.0188
PPP2R5D	1.54	3.42	48.2 °C	48.4 °C	-0.0693	0.0185
PPP2R5E	0.446	0.409	49.9 °C	49.7 °C	-0.065	-0.171
PROSC	1.09	0.951	48.8 °C	49.7 °C	0.225	-0.0262

Substance	thermal stability score (HeLa Kyoto [1]; [5])	thermal stability score (HeLa Kyoto [1]; cell cycle stage: mitosis)	melting temperature (HeLa Kyoto [2]; cell cycle stage: G1/S)	melting temperature (HeLa Kyoto [2]; cell cycle stage: mitosis)	solubility in G1/S (log2) (HeLa Kyoto [3])	solubility change mitosis (log2) (HeLa Kyoto [4])
PRRC2B	1.22	3.15	51.9 °C	52.2 °C	-0.236	0.078
PSIP1	-1.03	-2.11	50.8 °C	52.2 °C	0.071	0.557
PSME2	-0.487	2.4	52.8 °C	53.8 °C	0.142	0.0782
PSME4	-0.516	-0.817	52.1 °C	52.2 °C	-0.391	-0.0943
PTPN23	-1.39	-2.28	49.6 °C	49.2 °C	0.216	-0.134
RAB1A	-1.51	-4.28	60.3 °C	60.6 °C	0.166	-0.093
RAB1B	-0.394	-2.04	57.8 °C	58 °C	0.0965	-0.0321
RAB35	-0.529	-1.17	56.3 °C	56.2 °C	-0.0302	0.0226
RB1CC1	-0.0649	0.267	51.4 °C	50.2 °C	-0.0448	-0.219
RBBP6	-2.06	3.66	49 °C	49.9 °C	-0.908	0.511
RBPJ	0.21	-0.976	54.8 °C	54.4 °C	-0.198	0.039
REEP5	-0.45	-0.719	55.4 °C	57.6 °C	-0.148	-0.114
RHOB	-0.544	-0.587	57.2 °C	58.2 °C	0.157	-0.114
RHOT2	-0.0452	-0.352	50.7 °C	50.5 °C	-0.00866	-0.0417
RNF213	0.57	1.78	49.9 °C	49.8 °C	-0.346	-0.11
ROBO1	-4.69	-6.19	55.3 °C	54.4 °C	0.177	-0.145
RPE	-0.485	-1.28	56 °C	55.2 °C	0.306	0.356
RPIA	-0.283	-2.14	56.4 °C	55.2 °C	0.208	-0.157
